Our source for the Kd and kon values is US20260216242A1 (ALMAC DISCOVERY, published 2026).

This experiment has as its target T1, Human ALPP (leucine zipper) (human).
T1 construct: Soluble human ALPP fused to a disulphide stabilised leucine zipper and a His tag; The whole entry is the construct; also called hALPP; PLAP
T1 chain: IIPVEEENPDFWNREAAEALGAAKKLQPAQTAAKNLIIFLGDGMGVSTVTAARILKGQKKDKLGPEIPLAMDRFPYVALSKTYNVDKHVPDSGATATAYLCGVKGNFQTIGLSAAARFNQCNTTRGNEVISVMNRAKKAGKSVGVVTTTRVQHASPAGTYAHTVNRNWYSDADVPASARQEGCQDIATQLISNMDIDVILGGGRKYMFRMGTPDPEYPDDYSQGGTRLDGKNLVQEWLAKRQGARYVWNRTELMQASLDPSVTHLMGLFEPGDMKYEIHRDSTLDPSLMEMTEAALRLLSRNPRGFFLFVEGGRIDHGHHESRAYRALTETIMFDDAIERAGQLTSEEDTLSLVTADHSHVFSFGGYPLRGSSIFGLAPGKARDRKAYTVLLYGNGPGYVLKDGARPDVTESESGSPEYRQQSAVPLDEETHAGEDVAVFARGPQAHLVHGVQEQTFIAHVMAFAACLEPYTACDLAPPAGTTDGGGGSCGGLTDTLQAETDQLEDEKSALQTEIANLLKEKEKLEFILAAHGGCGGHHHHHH
Kind of experiment: BLI, KD app (antigen immobilised on AR2G sensor). On the procedure: Binding kinetics were determined using the Biolayer Interferometry (BLI) Octet K2 or R4 system (Sartorius). […] For KD apparent measurements, the ALPP proteins were immobilised in sodium acetate pH5 buffer to AR2G sensors using amine coupling. To measure 1:1 interactions, AHC biosensors were used to immobilise Fc-fused proteins. All assays were conducted in HBS-EP with a plate temperature of 25° C. Ka (M⁻¹s⁻¹), Kd (s⁻¹) and KD (nM) values were determined using Octet Data Analysis High Throughput software (Sartorius) for Biolayer Interferometry.

B1: A06 E06-hFc (S239C + S442C), mixed linkers (A06 - [G4S]1, E06 - [G4S]3) (Fc fusion)
chain 1: QVHLVESGGGLVQAGGSLRLSCAASGRTFLSMGWFRQAPGKEREFVAAISWTGGSTGYADSVKGRFTISRESDKETMYLQMNSLKPEDTAVYYCAARGDVYYGGDDATRYKYWGQGTQVTVSSGGGGSEPKSSDKTHTCPPCPAPELLGGPCVFLFPPKPKDTLMISRTPEVTCVVVDVSHEDPEVKFNWYVDGVEVHNAKTKPREEQYNSTYRVVSVLTVLHQDWLNGKEYKCKVSNKALPAPIEKTISKAKGQPREPQVYTLPPSRDELTKNQVSLYCLVKGFYPSDIAVEWESNGQPENNYKTTPPVLDSDGSFFLYSKLTVDKSRWQQGNVFSCSVMHEALHNHYTQKSLCLSPGK
chain 2: QVHLVESGGGLVQAGGSLRLSCAASRRSFSEYAMGWFRQAPGKEREFVAAIGWSGVIEYADSVKGRFTISRDNAKDTVYLQMNSLKPEDTAVYYCAAGLGIRVVSQTPAYWGQGTQVTVSSGGGGSGGGGSGGGGSEPKSSDKTHTCPPCPAPELLGGPCVFLFPPKPKDTLMISRTPEVTCVVVDVSHEDPEVKFNWYVDGVEVHNAKTKPREEQYNSTYRVVSVLTVLHQDWLNGKEYKCKVSNKALPAPIEKTISKAKGQPREPQVYTLPPSRDELTKNQVSLTCLVKGFYPSDIAVEWESNGQPENNYKTTPPVLDSDGSFFLTSKLTVDKSRWQQGNVFSCSVMHEALHNHYTQKSLCLSPGK
notes: Biparatopic heterodimer; also called #706
Molecule B1 displayed a Kd of less than 10 pM and a kon of 429000 M⁻¹ s⁻¹.

B2: A06 E10-hFc (S239C + S442C), mixed linkers (A06 - [G4S]1, E10 - [G4S]3) (Fc fusion)
chain 1: QVHLVESGGGLVQAGGSLRLSCAASGRTFLSMGWFRQAPGKEREFVAAISWTGGSTGYADSVKGRFTISRESDKETMYLQMNSLKPEDTAVYYCAARGDVYYGGDDATRYKYWGQGTQVTVSSGGGGSEPKSSDKTHTCPPCPAPELLGGPCVFLFPPKPKDTLMISRTPEVTCVVVDVSHEDPEVKFNWYVDGVEVHNAKTKPREEQYNSTYRVVSVLTVLHQDWLNGKEYKCKVSNKALPAPIEKTISKAKGQPREPQVYTLPPSRDELTKNQVSLYCLVKGFYPSDIAVEWESNGQPENNYKTTPPVLDSDGSFFLYSKLTVDKSRWQQGNVFSCSVMHEALHNHYTQKSLCLSPGK
chain 2: QVQLVESGGGLVQAGGSLRLSCAVSGRALSDYNIGWFRQAPGKEREFVARKTWDGSSTRYDDSVKGRFTVSIEDAKNTAYLQMSSLKTEDTAVYYCAAGRYSRARGWEYDYWGQGTQVTVSSGGGGSGGGGSGGGGSEPKSSDKTHTCPPCPAPELLGGPCVFLFPPKPKDTLMISRTPEVTCVVVDVSHEDPEVKFNWYVDGVEVHNAKTKPREEQYNSTYRVVSVLTVLHQDWLNGKEYKCKVSNKALPAPIEKTISKAKGQPREPQVYTLPPSRDELTKNQVSLTCLVKGFYPSDIAVEWESNGQPENNYKTTPPVLDSDGSFFLTSKLTVDKSRWQQGNVFSCSVMHEALHNHYTQKSLCLSPGK
notes: Biparatopic heterodimer; also called #707
Molecule B2 had a kon of 421000 M⁻¹ s⁻¹.

B3: A06 F05-hFc (S239C + S442C), mixed linkers (A06 - [G4S]1, F05 - [G4S]3) (Fc fusion)
chain 1: QVHLVESGGGLVQAGGSLRLSCAASGRTFLSMGWFRQAPGKEREFVAAISWTGGSTGYADSVKGRFTISRESDKETMYLQMNSLKPEDTAVYYCAARGDVYYGGDDATRYKYWGQGTQVTVSSGGGGSEPKSSDKTHTCPPCPAPELLGGPCVFLFPPKPKDTLMISRTPEVTCVVVDVSHEDPEVKFNWYVDGVEVHNAKTKPREEQYNSTYRVVSVLTVLHQDWLNGKEYKCKVSNKALPAPIEKTISKAKGQPREPQVYTLPPSRDELTKNQVSLYCLVKGFYPSDIAVEWESNGQPENNYKTTPPVLDSDGSFFLYSKLTVDKSRWQQGNVFSCSVMHEALHNHYTQKSLCLSPGK
chain 2: QVQLVESGGGLVQAGGSLRLSCAASGRAFGDYNIGWFRQAPGKEREFVARRTWDGSSTRYDDSVKGRFTVSIDNAKNTAYLQMNSLKTEDTAVYYCAAGRYSRVRGWEYDYWGQGTQVTVSSGGGGSGGGGSGGGGSEPKSSDKTHTCPPCPAPELLGGPCVFLFPPKPKDTLMISRTPEVTCVVVDVSHEDPEVKFNWYVDGVEVHNAKTKPREEQYNSTYRVVSVLTVLHQDWLNGKEYKCKVSNKALPAPIEKTISKAKGQPREPQVYTLPPSRDELTKNQVSLTCLVKGFYPSDIAVEWESNGQPENNYKTTPPVLDSDGSFFLTSKLTVDKSRWQQGNVFSCSVMHEALHNHYTQKSLCLSPGK
notes: Biparatopic heterodimer; also called #708
Turning to B3, the kon amounted to 426000 M⁻¹ s⁻¹.
